From patent publication US20250206797A1 (BEIJING TUO JIE BIOPHARMACEUTICAL, published 2025)

Legend:
Assay in all cases: cell-based or functional assay
[1] = molecular target: insulin receptor of C2C12 mouse myoblasts (mouse, UniProt P15208 28-1372)
IGF-IR [2] = molecular target: T1, IGF-IR (human, UniProt P08069 31-1367)
IGF-IR [3] = molecular target: T1, IGF-IR; remark: listed apart in the source

Sequence of insulin receptor of C2C12 mouse myoblasts (P15208 28-1372): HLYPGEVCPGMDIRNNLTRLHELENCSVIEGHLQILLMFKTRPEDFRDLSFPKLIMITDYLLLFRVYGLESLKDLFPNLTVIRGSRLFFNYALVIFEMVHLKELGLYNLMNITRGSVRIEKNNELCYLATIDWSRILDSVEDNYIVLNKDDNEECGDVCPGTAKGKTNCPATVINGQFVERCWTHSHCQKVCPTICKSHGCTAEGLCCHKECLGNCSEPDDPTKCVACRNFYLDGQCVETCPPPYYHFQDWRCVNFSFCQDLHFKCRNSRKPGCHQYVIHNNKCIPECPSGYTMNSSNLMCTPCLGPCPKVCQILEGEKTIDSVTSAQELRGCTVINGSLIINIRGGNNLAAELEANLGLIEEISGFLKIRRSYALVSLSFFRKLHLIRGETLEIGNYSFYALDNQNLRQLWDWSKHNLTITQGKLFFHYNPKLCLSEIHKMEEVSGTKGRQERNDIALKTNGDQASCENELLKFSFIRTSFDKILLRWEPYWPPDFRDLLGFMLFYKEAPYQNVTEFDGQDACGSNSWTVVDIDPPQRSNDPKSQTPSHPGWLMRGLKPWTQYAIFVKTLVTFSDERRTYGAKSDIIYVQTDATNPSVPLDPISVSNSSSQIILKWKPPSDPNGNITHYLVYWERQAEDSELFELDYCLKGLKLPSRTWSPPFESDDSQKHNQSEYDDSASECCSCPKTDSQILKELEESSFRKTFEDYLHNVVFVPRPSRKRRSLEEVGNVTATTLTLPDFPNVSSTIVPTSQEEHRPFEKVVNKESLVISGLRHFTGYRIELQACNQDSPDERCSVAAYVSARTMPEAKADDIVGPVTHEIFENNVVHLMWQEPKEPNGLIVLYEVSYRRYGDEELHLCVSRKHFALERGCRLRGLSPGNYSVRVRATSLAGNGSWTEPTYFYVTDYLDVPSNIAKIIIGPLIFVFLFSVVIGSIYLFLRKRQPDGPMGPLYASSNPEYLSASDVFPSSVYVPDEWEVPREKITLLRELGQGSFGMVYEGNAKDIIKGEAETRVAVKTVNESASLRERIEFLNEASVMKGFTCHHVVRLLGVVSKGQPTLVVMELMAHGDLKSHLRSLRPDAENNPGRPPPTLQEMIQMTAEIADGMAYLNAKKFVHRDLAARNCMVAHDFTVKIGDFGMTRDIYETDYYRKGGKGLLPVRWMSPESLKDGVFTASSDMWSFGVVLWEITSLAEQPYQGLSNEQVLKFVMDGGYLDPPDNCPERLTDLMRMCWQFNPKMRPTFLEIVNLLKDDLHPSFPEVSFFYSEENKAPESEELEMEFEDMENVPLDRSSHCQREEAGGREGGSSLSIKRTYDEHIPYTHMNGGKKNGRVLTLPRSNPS

Binder	AKT phosphorylation activity (EC50) in C2C12 mouse myoblasts (HTRF phospho-S473) [1] [nM]	Activity in promoting MCF-7 proliferation (EC50), CellTiter-Glo (IGF-IR [2]) [nM]	EC50 for the activity in promoting MCF-7 proliferation, relative to LY3209590 (IGF-IR [3])
LY3209590 (Fc fusion) FVNQHLCGSHLVEALELVCGERGFHYGGGGGGSGGGGGIVEQCCTSTCSLDQLENYCGGGGGQGGGGQGGGGQGGGGGECPPCPAPPVAGPSVFLFPPKPKDTLMISRTPEVTCVVVDVSHEDPEVQFNWYVDGVEVHNAKTKPREEQFNSTFRVVSVLTVVHQDWLNGKEYKCKVSNKGLPAPIEKTISKTKGQPREPQVYTLPPSREEMTKNQVSLTCLVKGFYPSDIAVEWESNGQPENNYKTTPPMLDSDGSFFLYSKLTVDKSRWQQGNVFSCSVMHEALHNHYTQKSLSLSPG	194	31.2	–
fusion protein 1 (insulin analog 1 + L2 + IgG2 Fc1) (Fc fusion) FVNQHLCGEHLVEALYLVCGERGFHYGGGGGGSGGGGGIVEQCCESICSLEQLENYCGGGGGQGGGGQGGGGQGGGGGECPPCPAPPVAGPSVFLFPPKPKDTLMISRTPEVTCVVVDVSHEDPEVQFNWYVDGVEVHNAKTKPREEQFNSTFRVVSVLTVVHQDWLNGKEYKCKVSNKGLPAPIEKTISKTKGQPREPQVYTLPPSREEMTKNQVSLTCLVKGFYPSDIAVEWESNGQPENNYKTTPPMLDSDGSFFLYSKLTVDKSRWQQGNVFSCSVMHEALHNHYTQKSLSLSPG	490	280	–
fusion protein 2 (insulin analog 2 + L2 + IgG2 Fc1) (Fc fusion) FVNQHLCGSHLVEALYLVCGERGFHYGGGGGGSGGGGGIVEQCCHSICSLEQLENYCGGGGGQGGGGQGGGGQGGGGGECPPCPAPPVAGPSVFLFPPKPKDTLMISRTPEVTCVVVDVSHEDPEVQFNWYVDGVEVHNAKTKPREEQFNSTFRVVSVLTVVHQDWLNGKEYKCKVSNKGLPAPIEKTISKTKGQPREPQVYTLPPSREEMTKNQVSLTCLVKGFYPSDIAVEWESNGQPENNYKTTPPMLDSDGSFFLYSKLTVDKSRWQQGNVFSCSVMHEALHNHYTQKSLSLSPG	90.5	–	~2 fold of the EC50 of LY3209590
fusion protein 3 (insulin analog 3 + L2 + IgG2 Fc1) (Fc fusion) FVNQHLCGSHLVEALHLVCGERGFHYGGGGGGSGGGGGIVEQCCTSICSLEQLENYCNGGGGQGGGGQGGGGQGGGGGECPPCPAPPVAGPSVFLFPPKPKDTLMISRTPEVTCVVVDVSHEDPEVQFNWYVDGVEVHNAKTKPREEQFNSTFRVVSVLTVVHQDWLNGKEYKCKVSNKGLPAPIEKTISKTKGQPREPQVYTLPPSREEMTKNQVSLTCLVKGFYPSDIAVEWESNGQPENNYKTTPPMLDSDGSFFLYSKLTVDKSRWQQGNVFSCSVMHEALHNHYTQKSLSLSPG	28.6	–	–
fusion protein 4 (insulin analog 4 + L2 + IgG2 Fc1) (Fc fusion) FVKQHLCGEHLVEALYLVCGERGFHYGGGGGGSGGGGGIVEQCCESICSLEQLENYCGGGGGQGGGGQGGGGQGGGGGECPPCPAPPVAGPSVFLFPPKPKDTLMISRTPEVTCVVVDVSHEDPEVQFNWYVDGVEVHNAKTKPREEQFNSTFRVVSVLTVVHQDWLNGKEYKCKVSNKGLPAPIEKTISKTKGQPREPQVYTLPPSREEMTKNQVSLTCLVKGFYPSDIAVEWESNGQPENNYKTTPPMLDSDGSFFLYSKLTVDKSRWQQGNVFSCSVMHEALHNHYTQKSLSLSPG	565	–	–
fusion protein 5 (insulin analog 1 + L2 + IgG2 Fc1) (Fc fusion) FVNQHLCGEHLVEALYLVCGERGFHYGGGGGGSGGGGGIVEQCCESICSLEQLENYCGGGGGQGGGGQGGGGQGGGGQGGGGQECPPCPAPPVAGPSVFLFPPKPKDTLMISRTPEVTCVVVDVSHEDPEVQFNWYVDGVEVHNAKTKPREEQFNSTFRVVSVLTVVHQDWLNGKEYKCKVSNKGLPAPIEKTISKTKGQPREPQVYTLPPSREEMTKNQVSLTCLVKGFYPSDIAVEWESNGQPENNYKTTPPMLDSDGSFFLYSKLTVDKSRWQQGNVFSCSVMHEALHNHYTQKSLSLSPG	320	–	–
fusion protein 6 (insulin analog 5 + L2 + IgG2 Fc1) (Fc fusion) FVNQHLCGEHLVEALYLVCGERGFHYGGGGGSGGGGGIVEQCCESICSLEQLENYCGGGGGQGGGGQGGGGQGGGGGECPPCPAPPVAGPSVFLFPPKPKDTLMISRTPEVTCVVVDVSHEDPEVQFNWYVDGVEVHNAKTKPREEQFNSTFRVVSVLTVVHQDWLNGKEYKCKVSNKGLPAPIEKTISKTKGQPREPQVYTLPPSREEMTKNQVSLTCLVKGFYPSDIAVEWESNGQPENNYKTTPPMLDSDGSFFLYSKLTVDKSRWQQGNVFSCSVMHEALHNHYTQKSLSLSPG	456	–	–
fusion protein 7 (insulin analog 1 + L2 + IgG2 Fc1) (Fc fusion) FVNQHLCGEHLVEALYLVCGERGFHYGGGGGGSGGGGGIVEQCCESICSLEQLENYCGPGPQPGPQPGPQPGPQPGPQPGPQPGPQPGPQECPPCPAPPVAGPSVFLFPPKPKDTLMISRTPEVTCVVVDVSHEDPEVQFNWYVDGVEVHNAKTKPREEQFNSTFRVVSVLTVVHQDWLNGKEYKCKVSNKGLPAPIEKTISKTKGQPREPQVYTLPPSREEMTKNQVSLTCLVKGFYPSDIAVEWESNGQPENNYKTTPPMLDSDGSFFLYSKLTVDKSRWQQGNVFSCSVMHEALHNHYTQKSLSLSPG	280	–	–
fusion protein 8 (insulin analog 1 + L2 + IgG2 Fc1) (Fc fusion) FVNQHLCGEHLVEALYLVCGERGFHYGGGGGGSGGGGGIVEQCCESICSLEQLENYCGGGGGAGGGGAGGGGAGGGGGECPPCPAPPVAGPSVFLFPPKPKDTLMISRTPEVTCVVVDVSHEDPEVQFNWYVDGVEVHNAKTKPREEQFNSTFRVVSVLTVVHQDWLNGKEYKCKVSNKGLPAPIEKTISKTKGQPREPQVYTLPPSREEMTKNQVSLTCLVKGFYPSDIAVEWESNGQPENNYKTTPPMLDSDGSFFLYSKLTVDKSRWQQGNVFSCSVMHEALHNHYTQKSLSLSPG	544	–	–
fusion protein 9 (insulin analog 6 + L2 + IgG2 Fc1) (Fc fusion) FVNQHLCGEHLVEALYLVCGERGFHYGGGGGGSGGGGGIVEQCCESICSLEQLENYCNHGGGQGGGGQGGGGQGGGGGECPPCPAPPVAGPSVFLFPPKPKDTLMISRTPEVTCVVVDVSHEDPEVQFNWYVDGVEVHNAKTKPREEQFNSTFRVVSVLTVVHQDWLNGKEYKCKVSNKGLPAPIEKTISKTKGQPREPQVYTLPPSREEMTKNQVSLTCLVKGFYPSDIAVEWESNGQPENNYKTTPPMLDSDGSFFLYSKLTVDKSRWQQGNVFSCSVMHEALHNHYTQKSLSLSPG	133	–	–
